Interaction strength as percentage of wildtype GAL4BD-UBXD1 (% of wildtype GAL4BD-UBXD1) data for 1 substance are collected here from paper PMC6098094.

Targets include Gal4BD-UBXD1ΔUBX; Gal4BD-UBXD1ΔVIM; Gal4BD-UBXD1ΔPUB.
Assay in all cases: two-hybrid; quantitative yeast two-hybrid, para-nitrophenyl-alpha-galactoside assay; interaction strength as percentage of wildtype GAL4BD-UBXD1; three independent experiments with five yeast transformands per condition

As for “Gal4AD-p97 (from UniProt P55072 1-806) (natural protein)”, the results for the interaction strength as percentage of wildtype GAL4BD-UBXD1 (% of wildtype GAL4BD-UBXD1) with Gal4BD-UBXD1ΔUBX, with Gal4BD-UBXD1ΔVIM and with Gal4BD-UBXD1ΔPUB were 29.2, 8.1 and 13.8, respectively.
